Assay results as given in patent US20240092857A1.

Key:
Presenilin-1 = Presenilin-1 (UniProt P49768); experiment: STED microscopy of KG1a-DLK1-GFP cells, 1864 condensates over 10 images
TGFBR1 = TGFBR1 (UniProt P36897); experiment: STED microscopy of KG1a-DLK1-GFP cells, 3691 condensates over 10 images
[1] = system: DLK1 extracellular domain (ECD), soluble, exogenously added

Sequence of UniProt P36897 (P36897 34-503 limits assumed): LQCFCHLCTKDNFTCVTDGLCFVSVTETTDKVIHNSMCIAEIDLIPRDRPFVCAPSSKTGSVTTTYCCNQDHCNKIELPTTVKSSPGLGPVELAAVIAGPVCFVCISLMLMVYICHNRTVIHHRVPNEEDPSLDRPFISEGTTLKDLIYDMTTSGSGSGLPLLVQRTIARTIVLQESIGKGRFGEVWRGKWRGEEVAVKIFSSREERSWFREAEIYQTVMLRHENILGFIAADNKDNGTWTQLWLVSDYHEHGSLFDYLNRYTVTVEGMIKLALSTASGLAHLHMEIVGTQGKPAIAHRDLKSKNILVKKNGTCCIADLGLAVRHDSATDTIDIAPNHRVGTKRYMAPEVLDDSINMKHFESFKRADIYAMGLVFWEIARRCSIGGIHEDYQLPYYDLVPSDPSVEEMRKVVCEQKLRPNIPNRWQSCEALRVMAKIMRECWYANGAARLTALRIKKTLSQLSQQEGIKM

Substance	percent of DLK1 in the PM that overlaps with PSEN1 (co-localization) (Presenilin-1) [%]	percent of PSEN1 that overlaps with DLK1 (co-localization) (Presenilin-1) [%]	percent of DLK1 in the PM that overlaps with TGFBR1 (co-localization) (TGFBR1) [%]	percent of TGFBR1 that overlaps with DLK1 (co-localization) (TGFBR1) [%]	Notch receptor cleavage, western blot of Notch1 cleaved at Valine 1744 (FIG. 14B) [1]
full-length DLK1 isoform with a C-terminal fusion to GFP, expressed in KG1a cells (from UniProt P80370 24-383)	80	75	75	75	–
Presenilin-1	–	–	–	–	reduces Notch receptor cleavage
